The target in data set [1] is T1, rGDH (recombinant glutamate dehydrogenase) (Clostridium difficile, UniProt P27346 SEQ:1-421).
T1 sequence: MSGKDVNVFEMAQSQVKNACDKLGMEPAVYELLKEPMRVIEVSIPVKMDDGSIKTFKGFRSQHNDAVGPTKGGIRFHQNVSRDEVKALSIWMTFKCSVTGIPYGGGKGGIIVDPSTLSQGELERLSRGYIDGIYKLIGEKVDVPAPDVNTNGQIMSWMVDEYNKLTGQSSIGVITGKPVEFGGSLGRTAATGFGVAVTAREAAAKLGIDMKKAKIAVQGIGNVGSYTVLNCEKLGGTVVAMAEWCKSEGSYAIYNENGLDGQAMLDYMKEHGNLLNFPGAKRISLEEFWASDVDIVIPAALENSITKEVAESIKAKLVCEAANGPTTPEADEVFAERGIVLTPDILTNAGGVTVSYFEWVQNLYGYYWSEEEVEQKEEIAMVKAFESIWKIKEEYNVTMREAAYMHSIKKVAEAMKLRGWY
Kind of data set: pulldown; […]; PBS pH 7.6, room temperature. To be noted: tags: C-terminal His6; expressed in E. coli; Pro-Lab Diagnostics.

The target in data set [2] is T1, rGDH (recombinant glutamate …). Kind of data set: pulldown; 20 nM DNA, rGDH beads; decreased. Conditions: tags: C-terminal His6; expressed in E. coli; Pro-Lab Diagnostics.
The target is the same in data set [3]. Kind of data set: pulldown. Conditions: tags: C-terminal His6; expressed in E. coli; Pro-Lab Diagnostics.
For data set [4] the target is unchanged. Kind of data set: pulldown; 20 nM DNA, rGDH beads. To be noted: tags: C-terminal His6; expressed in E. coli; Pro-Lab Diagnostics.
For data set [5], the target named is T2, BSA (UniProt P02769 P02769:25-607). Kind of data set: EMSA; 10 nM protein. Conditions: tags: Sigma. The procedure: The truncated aptamer, anti-GDH-T1, was then radioactively labeled at the 5′ end and tested for binding to the rGDH target by EMSA assays.^{39,40} A typical image of an EMSA result is shown in FIG. 3A. It was observed that the electrophoretic mobility of the protein-aptamer complex was typically less than that of the free aptamer. The fractional saturation of bound aptamer was calculated as a function of rGDH concentration (FIG. 3B). […] The specificity was also tested by EMSA. No obvious band was observed when using proteins such as BSA, thrombin and IgG (FIG. 8).
Binding reactions were performed in 20 μL of 1× binding buffer containing 3 nM 32P-labeled anti-GDH1-T1 aptamer and various concentrations of rGDH (0 to 1000 nM). After incubation for 30 min, the reaction mixtures were spiked with 6× loading buffer, and then loaded into the wells of a nondenaturing polyacrylamide gel (8%) at 4° C. Visualization of DNA bands was done using a Typhoon 9200 imager and the resulting bands were quantified with ImageQuant software.
On the technique in general: Mobility shift assays separate free from complexed probe on a gel.

For data set [6], the target named is T3, thrombin (Homo sapiens, UniProt P00734;P00734 P00734:328-363,P00734:364-622). Briefly: EMSA.
Data set [7] deals with T1, rGDH (recombinant glutamate …). Kind of data set: EMSA; […]; 1x PBS, 150 mM NaCl, 0.02% Tween-20, pH 7.6; […]. Conditions: tags: C-terminal His6; expressed in E. coli; Pro-Lab Diagnostics.
The target of data set [8] is T3, thrombin.
A further data set deals with TcdB (toxin B) (Clostridium difficile, UniProt P18177 SEQ:2-2366).
The target of another data set is TcdA (toxin A) (Clostridium difficile, UniProt P16154 SEQ:1-2710).
Data set [9] concerns the target T2, BSA. Kind of data set: RGO fluorescence sensor, 300 nM protein, no significant response. Conditions: tags: Sigma. The procedure: The detection limit (defined as 3σ/slope, with a being the standard deviation of the blank samples) of the sensor was determined to be 1 nM (FIG. 5A). The selectivity of the aptamer-graphene biosensing system was also evaluated by using non-target proteins (BSA, thrombin, IgG, TcdA and TcdB).
In a typical assay, 20 μL of 5× binding buffer (5×PBS, containing 750 mM NaCl and 0.1% Tween-20, pH 7.6), 2 μL of FAM-labeled (5′ end) aptamer probe (7 μM), 30 μL of RGO solution (100 μg/mL) and 48 μL of water were first mixed and incubated in a micro-centrifuge tube for 30 min. Then, 10 μL of 1% BSA was added to block the surface. After incubating for 20 min, 5 μL of nGDH with different dilutions was added to the mixture and time-dependent fluorescence emission measurements were performed at λₑₓ/λₑₘ=494/518 nm. The emission intensity obtained at a reaction time of 60 min was plotted against nGDH concentration to obtain a limit of detection. A similar experiment was carried out using non-target proteins (BSA, human thrombin, human IgG, TcdA and TcdB from C. difficile) to evaluate aptamer selectivity.

Data set [10] concerns the target T1, rGDH (recombinant glutamate …). Briefly: pulldown; […]; 1x PBS, 150 mM NaCl, 0.02% Tween-20, pH 7.6, room temperature. Conditions: tags: C-terminal His6; expressed in E. coli; Pro-Lab Diagnostics.

Read-outs that look alike come from different tables or passages of the source.

A word on the Kd: it is a measure of binding affinity in units of concentration.

T2 sequence (P02769 25-607, one chain of several): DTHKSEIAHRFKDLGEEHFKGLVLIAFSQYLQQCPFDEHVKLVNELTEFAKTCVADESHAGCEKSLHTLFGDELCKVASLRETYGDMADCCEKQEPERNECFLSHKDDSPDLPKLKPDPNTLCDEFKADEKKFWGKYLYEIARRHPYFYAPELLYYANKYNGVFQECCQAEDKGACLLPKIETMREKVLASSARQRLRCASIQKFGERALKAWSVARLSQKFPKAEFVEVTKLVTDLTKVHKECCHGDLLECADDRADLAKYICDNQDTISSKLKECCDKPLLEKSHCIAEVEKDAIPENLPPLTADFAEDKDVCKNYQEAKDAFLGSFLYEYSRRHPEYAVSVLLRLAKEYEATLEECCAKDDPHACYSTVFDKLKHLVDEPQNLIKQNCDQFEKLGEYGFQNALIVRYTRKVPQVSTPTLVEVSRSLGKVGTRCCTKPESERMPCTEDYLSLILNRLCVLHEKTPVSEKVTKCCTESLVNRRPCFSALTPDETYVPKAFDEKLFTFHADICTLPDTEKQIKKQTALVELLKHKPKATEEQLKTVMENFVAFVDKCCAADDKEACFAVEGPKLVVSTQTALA
Chain of TcdA (toxin A) (P16154 whole entry): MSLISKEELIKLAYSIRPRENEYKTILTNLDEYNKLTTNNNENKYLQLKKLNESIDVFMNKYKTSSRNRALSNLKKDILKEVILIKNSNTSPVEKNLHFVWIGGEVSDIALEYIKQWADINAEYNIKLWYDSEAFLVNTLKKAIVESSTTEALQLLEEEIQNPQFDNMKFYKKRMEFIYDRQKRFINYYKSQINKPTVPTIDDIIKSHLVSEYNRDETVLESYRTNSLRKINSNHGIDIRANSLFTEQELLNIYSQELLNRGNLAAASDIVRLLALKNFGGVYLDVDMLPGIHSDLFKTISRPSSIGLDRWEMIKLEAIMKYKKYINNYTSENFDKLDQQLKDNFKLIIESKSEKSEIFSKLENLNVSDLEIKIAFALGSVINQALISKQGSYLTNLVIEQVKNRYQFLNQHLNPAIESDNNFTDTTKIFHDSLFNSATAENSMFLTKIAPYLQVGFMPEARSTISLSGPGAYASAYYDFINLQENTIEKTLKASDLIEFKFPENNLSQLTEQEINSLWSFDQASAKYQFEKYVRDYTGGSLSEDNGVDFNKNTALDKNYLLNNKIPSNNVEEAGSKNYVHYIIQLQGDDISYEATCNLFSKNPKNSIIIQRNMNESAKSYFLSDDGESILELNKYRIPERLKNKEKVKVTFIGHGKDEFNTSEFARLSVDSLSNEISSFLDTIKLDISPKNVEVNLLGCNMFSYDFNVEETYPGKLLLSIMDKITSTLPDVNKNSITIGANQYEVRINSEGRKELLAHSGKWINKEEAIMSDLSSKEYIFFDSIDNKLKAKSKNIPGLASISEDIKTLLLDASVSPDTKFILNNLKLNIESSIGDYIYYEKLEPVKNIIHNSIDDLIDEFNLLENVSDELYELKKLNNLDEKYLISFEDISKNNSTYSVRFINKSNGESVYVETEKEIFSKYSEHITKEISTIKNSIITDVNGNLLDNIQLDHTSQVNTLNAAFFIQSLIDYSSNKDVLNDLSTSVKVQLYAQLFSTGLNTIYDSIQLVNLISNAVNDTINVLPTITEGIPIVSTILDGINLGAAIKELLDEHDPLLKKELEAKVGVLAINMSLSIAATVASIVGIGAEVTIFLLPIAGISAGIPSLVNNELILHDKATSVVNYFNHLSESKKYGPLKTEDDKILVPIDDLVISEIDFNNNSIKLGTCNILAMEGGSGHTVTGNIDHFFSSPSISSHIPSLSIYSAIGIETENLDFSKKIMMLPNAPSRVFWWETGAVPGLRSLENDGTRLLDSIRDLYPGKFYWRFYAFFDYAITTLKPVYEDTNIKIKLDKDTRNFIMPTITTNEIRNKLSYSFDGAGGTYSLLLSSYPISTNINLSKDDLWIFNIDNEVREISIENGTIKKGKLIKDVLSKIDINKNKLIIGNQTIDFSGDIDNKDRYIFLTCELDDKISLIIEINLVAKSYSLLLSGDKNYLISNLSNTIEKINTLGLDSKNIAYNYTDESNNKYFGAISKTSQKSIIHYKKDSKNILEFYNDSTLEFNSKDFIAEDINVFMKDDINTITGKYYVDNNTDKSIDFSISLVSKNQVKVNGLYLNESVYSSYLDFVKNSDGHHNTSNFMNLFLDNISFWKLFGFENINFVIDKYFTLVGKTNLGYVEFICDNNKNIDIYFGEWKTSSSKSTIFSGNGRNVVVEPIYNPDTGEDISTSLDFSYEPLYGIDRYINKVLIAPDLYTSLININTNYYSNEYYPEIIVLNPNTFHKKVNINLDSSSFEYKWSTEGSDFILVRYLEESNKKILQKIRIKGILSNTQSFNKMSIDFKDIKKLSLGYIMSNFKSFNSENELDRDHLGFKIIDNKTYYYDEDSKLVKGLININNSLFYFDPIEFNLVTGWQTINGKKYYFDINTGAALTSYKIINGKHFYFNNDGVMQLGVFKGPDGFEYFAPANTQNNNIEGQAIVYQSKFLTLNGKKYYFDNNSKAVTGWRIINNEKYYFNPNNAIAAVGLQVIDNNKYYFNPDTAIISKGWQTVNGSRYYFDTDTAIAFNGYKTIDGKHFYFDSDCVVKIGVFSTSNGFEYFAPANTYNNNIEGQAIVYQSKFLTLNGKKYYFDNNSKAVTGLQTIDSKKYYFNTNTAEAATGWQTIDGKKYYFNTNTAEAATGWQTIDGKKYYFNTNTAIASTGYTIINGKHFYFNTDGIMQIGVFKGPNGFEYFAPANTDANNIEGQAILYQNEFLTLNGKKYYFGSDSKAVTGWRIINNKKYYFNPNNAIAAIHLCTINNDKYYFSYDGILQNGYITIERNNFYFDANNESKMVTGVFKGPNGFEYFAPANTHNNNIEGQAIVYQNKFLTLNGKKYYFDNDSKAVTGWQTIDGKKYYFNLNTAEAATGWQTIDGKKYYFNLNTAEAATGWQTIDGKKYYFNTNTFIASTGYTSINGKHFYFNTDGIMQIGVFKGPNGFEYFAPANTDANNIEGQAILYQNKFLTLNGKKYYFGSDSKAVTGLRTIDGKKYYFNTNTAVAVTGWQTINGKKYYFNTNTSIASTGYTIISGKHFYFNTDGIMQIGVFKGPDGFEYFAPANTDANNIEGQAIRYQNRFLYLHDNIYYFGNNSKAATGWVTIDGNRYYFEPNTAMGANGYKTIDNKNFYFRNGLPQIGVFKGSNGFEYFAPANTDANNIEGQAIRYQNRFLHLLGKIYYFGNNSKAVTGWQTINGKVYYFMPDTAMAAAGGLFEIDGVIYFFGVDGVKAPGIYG

B1: anti-G3 (anti-GDH3) (ssDNA)
DNA: CAGGTCCATCGAGTGGTAGGATGCAGCGGACAGTGTGGGACCATCGCTGCGGATGTATGAATCGCACTGCTCCTGAACGTAC
Regarding B1, in data set [1], the Kd turned out to be 5.6 nM.

B2: anti-G1-T3 (ssDNA)
DNA: AGGTATTTAGTGCCAAGCCATCTCAAACGACGTCTGAGTCGCACTGCTCCTG
Consider B2, for which the binding result in [2] is “binds”.

B3: anti-G1-T4 (ssDNA)
DNA: AGGTATTTAGTGCCAAGCCATCTCAAACGACGTCTGAGTCGCACTGCT
As for B3, the binding result in [3] is given as “binds”.

B4: anti-G1-T7 (ssDNA)
DNA: TAGTGCCAAGCCATCTCAAACGACGTCTGAGTCGCACTG
As for B4, in [4], the binding result is given as “no binding”.

B5: anti-G7 (anti-GDH7) (ssDNA)
DNA: CAGGTCCATCGAGTGGTAGGACCCAACCCACGATGCGCAAGAGGAATGCAGCCTACCAGCATCGCACTGCTCCTGAACGTAC
As for B5, the Kd in data set [1] turned out to be 4.6 nM.

B6: anti-G1-T1 (ssDNA)
DNA: TAGGAGGAGGTATTTAGTGCCAAGCCATCTCAAACGACGTCTGAGTCGCACTGCTCCTG
As for B6, the binding result in the data set with BSA [5] and with thrombin [6] was “no binding” throughout. Also, the Kd in data set [7] turned out to be 4.5 nM.

B7: FAM-anti-GDH1-T1 (ssDNA)
DNA: B6 DNA
Turning to B7, the binding result with thrombin [8], with TcdB (toxin B), with TcdA (toxin A) and with BSA [9] was “no binding” throughout.

B8: anti-G1-T8 (ssDNA)
DNA: AGGTATTTAGTGCCAAGCCATCGTCGCACTGCTCCTG
Turning to B8, the binding result in [4] is “no binding”.

B9: anti-G1-T6 (ssDNA)
DNA: AGCCATCTCAAACGACGTCTGAGTCGCA
For B9, the binding result in data set [4] is reported as “no binding”.

B10: anti-G1 (anti-GDH1) (ssDNA)
DNA: CAGGTCCATCGAGTGGTAGGAGGAGGTATTTAGTGCCAAGCCATCTCAAACGACGTCTGAGTCGCACTGCTCCTGAACGTAC
For the molecule B10, the Kd in data set [10] came to 3.1 nM.

The record behind these values is patent publication US20190071714, “[…] FOR CLOSTRIDIUM […] DETECTION” (McMaster University, published 2019).
